The record followed here is ChEMBL document CHEMBL3769311, “The natural flavone fukugetin as a mixed-type inhibitor for human tissue kallikreins” (Bioorg Med Chem Lett, 2016).

Activity calls are given as the source filed them. The calls are words filed in the database; no cut-off is given here.

The target in data set [1] is Kallikrein-1 (Homo sapiens) (UniProt P06870). The conditions noted are these: 2 to 10 uM.
For data set [2], the system named is O=C1CC(c2ccc(O)c(O)c2)Oc2c1c(O)cc(O)c2[C@@H]1C(=O)c2c(O)cc(O)cc2O[C@H]1c1ccc(O)cc1. The conditions noted are these: Homo sapiens; 2 uM.
Description: Mixed-type inhibition of human tissue kallikrein-1 expressed in baculovirus infected insect cells using Abz-KLRSSQ-EDDnp as substrate assessed as enzyme Vmax at 2 uM by Lineweaver-Burk plot analysis
Data set [3] shares this test system. To be noted: Homo sapiens; 4 uM.
Description: Mixed-type inhibition of human tissue kallikrein-1 expressed in baculovirus infected insect cells using Abz-KLRSSQ-EDDnp as substrate assessed as enzyme Vmax at 4 uM by Lineweaver-Burk plot analysis
For data set [4] the test system is unchanged. The conditions noted are these: Homo sapiens; 8 uM.
Description: Mixed-type inhibition of human tissue kallikrein-1 expressed in baculovirus infected insect cells using Abz-KLRSSQ-EDDnp as substrate assessed as enzyme Vmax at 8 uM by Lineweaver-Burk plot analysis
Data set [5] shares this test system. The conditions noted are these: Homo sapiens; 4 uM. The source holds these as a separate data set.
Description: Mixed-type inhibition of human tissue kallikrein-1 expressed in baculovirus infected insect cells using Abz-KLRSSQ-EDDnp as substrate assessed as substrate Km at 4 uM by Lineweaver-Burk plot analysis
Data set [6] has the same test system. To be noted: Homo sapiens; 8 uM. The source holds these as a separate data set.
Description: Mixed-type inhibition of human tissue kallikrein-1 expressed in baculovirus infected insect cells using Abz-KLRSSQ-EDDnp as substrate assessed as substrate Km at 8 uM by Lineweaver-Burk plot analysis
Data set [7] has the same test system. To be noted: Homo sapiens; 10 uM.
Description: Mixed-type inhibition of human tissue kallikrein-1 expressed in baculovirus infected insect cells using Abz-KLRSSQ-EDDnp as substrate assessed as enzyme Vmax at 10 uM by Lineweaver-Burk plot analysis
For data set [8] the test system is unchanged. To be noted: Homo sapiens; 2 uM. The source holds these as a separate data set.
Description: Mixed-type inhibition of human tissue kallikrein-1 expressed in baculovirus infected insect cells using Abz-KLRSSQ-EDDnp as substrate assessed as substrate Km at 2 uM by Lineweaver-Burk plot analysis
The test system is the same in data set [9]. The conditions noted are these: Homo sapiens; 10 uM. The source holds these as a separate data set.
Description: Mixed-type inhibition of human tissue kallikrein-1 expressed in baculovirus infected insect cells using Abz-KLRSSQ-EDDnp as substrate assessed as substrate Km at 10 uM by Lineweaver-Burk plot analysis

Consider `O=C1CC(c2ccc(O)c(O)c2)Oc2c1c(O)cc(O)c2[C@@H]1C(=O)c2c(O)cc(O)cc2O[C@H]1c1ccc(O)cc1` (some centres undefined), for which the inhibition entry in data set [1] is “Active”.

Kallikrein-1 (Homo sapiens), P06870: the Vmax amounted to 387 µM/s in [2], 285 µM/s in [3], 201 µM/s in data set [4] and 160 µM/s in [7]. The Km in data set [5] was 0.85 µM; in [6] it was 0.93 µM; in data set [8], 0.8 µM; in data set [9], 1.12 µM.
